From the nanobody polyreactivity screen of Harvey et al. (2022)

Assay: yeast display, Sf9 membrane polyspecificity reagent, FACS + sequencing; frameworks hold sequencing errors
Method in brief: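 A nanobody's polyreactivity label depends on the gate it was sorted from. Yeast display cells were stained with 10% biotinylated, detergent-solubilized Sf9 membrane reagent for 1 hour at 4 °C, enriched on streptavidin microbeads and sorted by FACS. The low and high (top ~1%) gates were set on anti-HA fluorescence for expression and streptavidin fluorescence for reagent binding.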

Row | Sequence | polyreactivity (PSR sort gate)
1 | QVQLVESGGGLVQAGGSLRLSCAASGFTFTYYVMGWYRQAPGKVRELVAAITRGGITDYADSVKGRFTISRDNAKNTVDLQMNSLKPEETAVYYCAAYYSYVLDYDYWGQGTQVTVSS | low polyreactivity
2 | QVQLVESGGGLDQAGGSLRLSCAASGYTFLIYAMGWYRQAPGKERELVAAISYRDGRTYYADSVKGRFTISRDNAKNTVYLQMNSLNPEDTAVYYCAATLFYQPYRSYYYWGQGTQVTVSS | high polyreactivity
3 | QVHLVESRGGLVQAGGSLRLSCAASVFTFRYYAMGWYRQAPGKERELVAAITSDGITNYADSVKGRFTISRDNAKNTVYLQMNSLKPEDTAVYYCAAVGWFYGIRLEYWGQGTQLTVSS | high polyreactivity
4 | QDQLVESGGGLVQAGGRRRLSCAASGSIFGGYSMGWYRQAPGKERELVAAISRRGGNTYYADSVKGRFTISGDNAKNTVYLQMNSLKPDDTAVYYCAVRWPSARIPVKLDYWVQGTQVTVSS | high polyreactivity
5 | QVQLVESGGGLVQAGGSLRLSCAASGSIFTPNAMGGYRQAPGKERELVAAISSSSDRTYYADSVKGRFTISRDNAKNTVYLQMNRLKPEDTAVYYCAAYAQKRYYWGQGTQVTVSS | high polyreactivity
6 | QVQLVESGGGLVQAGGSLRLSCAASGSTFREYTMGWYRQAPGKERELVAAITNSGGSTYYADSVKGRFTISRDNAKNTVYLQMNSLKPEDTAVYYCAAEVGIVDYDYWGQGTQVTVSS | low polyreactivity
7 | QVQLVESGGGLVQAGGSLRLSCAASGSTFYRNGMGWYRQAPGKERELVAGIDRSGGSTYYADSVKGRFTISRDNAKNTVYLQMNSLKPEDTAVYYCAAQNGYYPQHDYWGQGTQVTVSS | high polyreactivity
8 | QVQLVESGGGLVQAGGSLRLSCAASGSTFGYYAMGWYRQAPGKERELVAAITASGGGTYYADSVKGRFTISRDNAKNTFYLQMNSLKPEDTEVYYCNRGYDYWGQGTHVTVSS | low polyreactivity
9 | QVQLVESGGGLVQAGGSLRLSCAASGIIFPWYTMGWYRQAPGKERELVAAISSGGRTNYADSVKGRFTISRDNAKYTVYLQMNSLKPEDTAVYYCAAKYYRDRDWGQGTQVTVSS | high polyreactivity
10 | QVQLVESGGGLVQAGGRLRLSCAASGRTFYVYTMGWYRQAPGPERELVAAIPSGGSTNYADSVKGRFTISRDNAKKTVYLQMNSLKPEDTAVYYCAARDSTVFKRYYYWGQGTQVTVSS | high polyreactivity
11 | QVQLVESAGGLVQAGGSLRLSCDASGSIFRYYDMGWYRQAPGKERELVAAITYYGGGTYYADSVKGRFTISRDNAKNTVYLQMNSLKAEDTAVYYCAVRRVGSIYMDRYRYVVADYVYWGQGTQVTVSS | low polyreactivity
12 | QVQLVESGGGLVQAGGSLRLSCAASGSTFPHNPMGCYRQAPGKERELVAAISSIGVRTYYADSVKGRFTISRDNAKNTVYLQMNSLKPEDTAVYYCAARQSQGDRYYYWGHGTQVTVSS | high polyreactivity
13 | QVQLVESGGGLVQAGGSLRLRCSASGSTIKDYTMGLYRQAPGKERELVAAITDSGGSTYYADSVKGRFTISRDNAKNTVYLQMNSLTPEDTAVYFCAAAVPELYEVRYHDDYWGQGTQVTVSS | low polyreactivity
14 | QVQLLESGGGLVQAGGSLRLSCAASGLIFGENAMGWYRQAPGKERELVAAISRRAGITYYADSVKGRFTISRDNAKNTVYLQMNSLKPEDTAVYYCAAQYYLYRSRFDYWGQGTQVTVSS | high polyreactivity
15 | QVQLVESGGGLVQAGGSLRLSCAASGSIFSGNAMGWYRQAPGKERELVAAISRSGGSTYYADSVKGRFTISRDYAKNTVYLQMNSLKPEDTAVYYCAKGQYYYIGDYDYWGQGTQVTVSS | high polyreactivity
16 | QVQLVESGGGLVQAGGSLRLSCAASGFISGFYGMGWYRQAPGKEREFVAAIDFIDGDTYYADSVKGRFTISRDNAKNTVYLQMNSLKPEDTAVYYCAADGSFWQFDYWGQGTQVTVSS | low polyreactivity
17 | QVQLVESGGGLVQAGGSLRLSCAASGLIFARYVMGWSRQAPGKERELVADIDKGGGSTYYADSVKGRFTISRDNAKNTVYLQMNSLKPEDTAVYYCNADFDGWWWDDYWGQGTQVTVSS | high polyreactivity
18 | QVQLVESGGGLVQAGGSLRLSCAASGLTFCRYVMGWYRQAPVKERELVAAITSGDSTNYADSVKGRFTISRDNAKNTVYLQTYSLITEVTAGYYCAADYWYRYYIGRNPWECITFDYWGQGTQVTVSS | low polyreactivity
19 | QVQLVESGGGSVQAGGSLRLSCAASGSIFAQYTMGWYRQAPGKERELVAVISINGVSTYYADSVKGRFTISRDNAKNTVYLQMNSLKPEDTAVYYCNAGISPYEALGYWGQGTQVTVSS | low polyreactivity
20 | QVQLVESGGGLVHEGGSLRLIFAASGRIFGPNHMGWYRQAPGKERELVAAITDSCDITYYADSVKGRFTISRDNAKNTVYLQMNSLKPQDTAVYYCAADHTYENEYWGQGTQVNVSS | low polyreactivity
21 | QVQLVESAGGLVQAGGSLRLSCAASGFIFSRNAMGWYRQAPGKERELVAVISTSGGSTYYADSVKGRFTISRDNAKNTVYLQMNSLKPEDTAVYYCAARRTRGYEYWGKGTQVTVSS | high polyreactivity
22 | QVQLVESGGRLVQAGGSLRLSCAASGRIFATYAMGWYRQAPGKEWQLVAGITSGGRTNYADSVKGRFTISRDNAKNTVYLQMNSLKPEDTAVYYCDKRVWPRDQYGKRNPRMDYWGQGTQETVSS | high polyreactivity

Row | Sequence | polyreactivity (PSR sort gate)
23 | QVQLVESGGGLVQAGGSLRLSCAASGRTFYYYAMGWYRPAPGKERELVAAISWSGGRTYYADSVKGRFTISRDNAKNTVYLQMNSLKPEDTAVYYCNAEPPRGYTVSSGGEMDYWGQGTQVTVSS | low polyreactivity
24 | QVQLVESGGCLVQAGGRLRLSCAASGIIFYLYAMAWYRQARGKVWELVATISRRGGSTYYADSVKGRFTISRDNAKNTVYLQMNSLKPDDTAVYYCATGHFSVGRSFSSGSYEYWGQGTQVTVSS | high polyreactivity
25 | QVQLVESGGGLVQAGGSLRLICAASGSIFCTYAMGWYRQAPGKERELVAAITTSVGRTYYADSVKGRFTISRDNAKNTVYLHMNSLKPDDTAVYYCYAVRGGRYGLDYWGQGTHVTVSS | high polyreactivity
26 | QVQLVESGGGLVQAGGSIRLTCAASGRIFYLNAMGWYRQAPGKEREMGAAITWSGGRTYYADSVKGRFTISRDNAKNTVYLQMNSLKPEDTAVYYCAAVPRPGPNTVLTPYGYWGQGTQVTVSS | high polyreactivity
27 | QVQLVESGGGLVQAGGSLRLSCAASGFTIRNYAMGLYRQAPGKERELFAAIRGRGGSTYYADSVKGRFTISRDNAKNTDYLQMNSLKPEDTAVYYCARVGYASYEHDYWGQGTQVNVSS | high polyreactivity
28 | QVQLVESGGGLVQAGGSLRLSCAASGRISGVNAMGWYRQAPGKERELVATISGSGGRTYYADSVKGRFTISRDNAKNTVYLQMNSLKPEDTAVYYCNTLVQRGGYFSLRFDYWGQGTQVTVSS | low polyreactivity
29 | QVQLVESGGGLVQAGGRLRLSCAASGRIFKRYAMGWYRQAPGKESELVAAISWRGGSTYYADSVKGRFTISRDNAKNTVYFQMNSLKPEDTAVYYCAAGYFSYRRYDYWGQGTQVTVSS | high polyreactivity
30 | QVQLVESGGGLVQAGGSLRLSSAASGRTFSYNTMGWYSQAPGQERELVARITWGGGSTNYAVSVKGRFTISRDNAKNTVYLQMNSLKPEDTAVYYCAAGPSVPYGPQKVDYWGQGTLVTVSS | low polyreactivity
31 | QVQLVESGGGLVQAGGSLRLSCAASGIIFEGYAMGWYRQAPGKERELVAAISQSGGSTRYADSVKGRFTISRDNAKNTVYLQMNSLKPEDTAVYYCAKEVWNWGPYYYWGQGTQVTVSS | low polyreactivity
32 | QVQLVESGGGLVQAGGSLRLICDASGLTFGIYTMGWYRQAPAKESELVAAINWIGTRTYYADSVKGRFTISRDNAKNTVYLQMNSLKPEDTAVYYCATVIGYTKRKYDYWGQGTQVTVSS | high polyreactivity
33 | QVQLVESGGGLVQAGGSLRLSCAASGYNFDHYAMGWYRQAPGKERELVAAISRSAGSTYYADSVKGRFTISRDNAKNTVYLQMTSLKTEDTAVYYCNTVFRWIDRVLGYEYWGQGTQVTVSS | high polyreactivity
34 | QVQLVESGRALVQAGGSLRVSCAASGRTFDTNAMGWYRQAPGKERELVAVITARGGNTSYADSVKGRFTLSRDNAKNSVYLQMNSLKPEDTAVYYCAARVYRAPWTYDEGNYWGQGTQVTVSS | low polyreactivity
35 | QVQLVESGAGLVQAGGSLRLSCAPSGITFVGNAMGWSRPAPGKERELVAGIRGNGGSTYYADSVKGRFTISRDNAKNTVYFQMNSLKPEDTAVYYSAAAAYYADFDYWGLGTQVTVSS | low polyreactivity
36 | QVQLVESGAGLFQAGGSLRLTCAPSGSIFAFNTMGLYRQAPGKERHLVAAITWGGGSTYYADSVKGRFTISRDNAKNTVYLQMYSLKPEDTAVYYCATKAKYGRQFLMEYWGQGTQVTVSS | high polyreactivity
37 | QVQLVESGGGLVQAGGSLRLSCAASGSTFSYAMGWYRQAPGKERELVAAITIGGRTSYADSVKGRFTISRDNAKNTVYLQMNSLNPEDTAVYYCAADDLPGMDYWGQGSQVTVSS | low polyreactivity
38 | QVQLGESGGGLVQAGGSLRLSCAASGSTFPRYVMGWYRQAPGKERELVAAISSSSGRTFYADSVKGRFTISRDNAKNTVYLQMNSLKPEDTAVYYCAARTSFNVHYWGQGTQVTVSS | high polyreactivity
39 | QVQLVESGGGLVQAGGSLRLSCAASGSTFLGNAMGWYSQAPGKERELVASISWSGGSTSYADSVKGRFTISRDIAKNTVYLLMNSLKPEDTAVYYCAVDWRYTGRTYYGMESWGQGTQVTVSS | low polyreactivity
40 | QVQLVESGGGLVQAGGSLRLSCAASGSILAYNAMGWYRQAPGKERELVAAISWTGRTYYADSVKGRFTISRDNAKNTVYLQMNSLKPEDTAVYYCNARGRQRSRGSQIYDYWGQGSQVTVSS | high polyreactivity
41 | QVQLVESGGGLVQAGGSLRLSCAASGRTFVGYPMGWCRQAPGKERELVAAIDLSDGSTSYADSVKGRFTISRDHAKNTVYLQMISLTPEHTAVYYCAKTSANVYAGAHDSWGQGTQVTVSS | low polyreactivity
42 | QVQLVESGGGLVQAGGSLRLSCAASGLNFYRYPMGWNRQAPGKERELVAAITRNGGSTYYADSVKGRFTISRDNANNTVYLQMNSLKPEDIAVYYCAADLYSAVYFSRWSDYWGQGTQVTVSS | high polyreactivity
43 | QVQLVESGGGLVQAGGSLRLSCAASGRTFRSNAMGGYRQAPGKERELVAAITYSGDRTYYADSVKGRFTISRDNAKNTVYLQMNSLKPEDTAVYDCNKYSRQYTYGYWGQGTQVTVSS | high polyreactivity
